Laboratory results published in patent US20240409647A1 (SINOMAB BIOSCIENCE, published 2024).

T1: human IL-33 (R&D systems) (human, UniProt O95760 112-270)
T1 sequence (looked up): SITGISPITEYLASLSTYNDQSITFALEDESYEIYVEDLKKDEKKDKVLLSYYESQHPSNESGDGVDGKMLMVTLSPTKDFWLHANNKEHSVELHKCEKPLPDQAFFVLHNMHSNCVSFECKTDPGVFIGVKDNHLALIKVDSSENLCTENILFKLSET

B1: SM17-anti TSLP 1# bsBp (bispecific antibody, human IgG4 S228P, kappa)
heavy: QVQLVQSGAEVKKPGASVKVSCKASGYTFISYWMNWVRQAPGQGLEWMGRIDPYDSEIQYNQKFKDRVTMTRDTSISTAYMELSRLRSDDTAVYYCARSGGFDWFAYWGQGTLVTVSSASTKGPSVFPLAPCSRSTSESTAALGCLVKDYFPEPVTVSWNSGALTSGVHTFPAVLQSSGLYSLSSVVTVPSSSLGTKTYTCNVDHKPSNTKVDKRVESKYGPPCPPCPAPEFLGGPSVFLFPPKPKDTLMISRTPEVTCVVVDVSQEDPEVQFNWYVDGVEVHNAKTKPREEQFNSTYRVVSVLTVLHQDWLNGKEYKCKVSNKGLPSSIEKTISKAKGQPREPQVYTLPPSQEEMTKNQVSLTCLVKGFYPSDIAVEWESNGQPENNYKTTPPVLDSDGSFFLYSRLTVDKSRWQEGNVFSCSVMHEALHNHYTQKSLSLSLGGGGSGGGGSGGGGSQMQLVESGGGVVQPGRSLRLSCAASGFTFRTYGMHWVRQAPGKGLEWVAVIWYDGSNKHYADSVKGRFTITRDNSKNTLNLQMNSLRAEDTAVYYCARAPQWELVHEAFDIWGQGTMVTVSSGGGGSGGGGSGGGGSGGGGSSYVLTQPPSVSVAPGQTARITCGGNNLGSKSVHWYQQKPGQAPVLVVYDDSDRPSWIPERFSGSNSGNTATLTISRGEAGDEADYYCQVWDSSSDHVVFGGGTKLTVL
light: DIQMTQSPSSLSASVGDRVTITCRASENINSNLAWYQQKPGKAPKLLLYDVTNLADGVPSRFSGSGSGTDYTLTISSLQPEDFATYYCQHFWGPPYTFGGGTKVEIKRTVAAPSVFIFPPSDEQLKSGTASVVCLLNNFYPREAKVQWKVDNALQSGNSQESVTEQDSKDSTYSLSSTLTLSKADYEKHKVYACEVTHQGLSSPVTKSFNRGEC
notes: SM17 IgG with an anti-TSLP scFv fused to the C-terminus of each heavy chain; expressed in ExpiCHO-S cells
B2: SM17-anti TSLP 2# bsBp (bispecific antibody, human IgG4 S228P, kappa)
heavy: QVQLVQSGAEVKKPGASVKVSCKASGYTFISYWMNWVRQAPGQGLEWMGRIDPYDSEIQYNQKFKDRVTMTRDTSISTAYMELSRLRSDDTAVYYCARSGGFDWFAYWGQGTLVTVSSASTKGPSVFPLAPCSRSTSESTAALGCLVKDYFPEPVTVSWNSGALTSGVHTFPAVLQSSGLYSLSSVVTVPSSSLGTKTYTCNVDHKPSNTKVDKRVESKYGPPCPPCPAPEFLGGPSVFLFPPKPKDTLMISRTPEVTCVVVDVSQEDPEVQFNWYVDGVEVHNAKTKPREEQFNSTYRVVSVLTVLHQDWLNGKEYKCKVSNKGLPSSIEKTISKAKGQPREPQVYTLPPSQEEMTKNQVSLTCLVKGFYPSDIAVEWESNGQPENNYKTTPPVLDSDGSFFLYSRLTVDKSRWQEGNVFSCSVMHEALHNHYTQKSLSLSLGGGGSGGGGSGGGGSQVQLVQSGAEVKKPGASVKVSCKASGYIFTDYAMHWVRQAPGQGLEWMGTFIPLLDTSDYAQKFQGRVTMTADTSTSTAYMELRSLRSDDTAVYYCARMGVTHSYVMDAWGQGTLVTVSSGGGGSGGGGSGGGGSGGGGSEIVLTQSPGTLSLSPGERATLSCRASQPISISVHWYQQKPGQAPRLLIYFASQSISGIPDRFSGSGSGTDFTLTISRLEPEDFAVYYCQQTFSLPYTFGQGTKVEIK
light: B1 light
notes: SM17 IgG with an anti-TSLP scFv fused to the C-terminus of each heavy chain; also called SM17-anti-TSLP bsBp 2 #
B3: SM17-anti IL-33 3# bsBp (bispecific antibody, human IgG4 S228P, kappa)
heavy: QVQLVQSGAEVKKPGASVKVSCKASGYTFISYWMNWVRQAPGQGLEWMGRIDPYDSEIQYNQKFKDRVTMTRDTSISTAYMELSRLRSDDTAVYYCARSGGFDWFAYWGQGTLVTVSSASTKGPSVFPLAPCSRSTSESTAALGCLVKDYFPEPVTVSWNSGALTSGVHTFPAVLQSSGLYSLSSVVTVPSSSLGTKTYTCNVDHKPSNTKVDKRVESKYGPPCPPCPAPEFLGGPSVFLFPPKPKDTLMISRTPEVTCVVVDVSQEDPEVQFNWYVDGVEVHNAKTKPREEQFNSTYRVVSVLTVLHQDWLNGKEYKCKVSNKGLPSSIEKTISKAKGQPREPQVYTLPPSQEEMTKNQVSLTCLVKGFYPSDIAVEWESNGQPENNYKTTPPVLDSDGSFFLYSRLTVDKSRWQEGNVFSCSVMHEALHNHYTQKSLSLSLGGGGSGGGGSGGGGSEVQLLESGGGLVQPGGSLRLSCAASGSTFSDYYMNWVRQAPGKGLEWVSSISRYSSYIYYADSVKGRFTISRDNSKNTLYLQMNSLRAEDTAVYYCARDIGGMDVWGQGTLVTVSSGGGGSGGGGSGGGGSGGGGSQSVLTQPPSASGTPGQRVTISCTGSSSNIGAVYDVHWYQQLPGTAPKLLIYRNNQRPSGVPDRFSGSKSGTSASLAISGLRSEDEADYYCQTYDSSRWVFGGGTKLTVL
light: B1 light
notes: SM17 IgG with an anti-IL-33 scFv fused to the C-terminus of each heavy chain
B4: SM17-anti IL-33 2# bsBp (bispecific antibody, human IgG4 S228P, kappa)
heavy: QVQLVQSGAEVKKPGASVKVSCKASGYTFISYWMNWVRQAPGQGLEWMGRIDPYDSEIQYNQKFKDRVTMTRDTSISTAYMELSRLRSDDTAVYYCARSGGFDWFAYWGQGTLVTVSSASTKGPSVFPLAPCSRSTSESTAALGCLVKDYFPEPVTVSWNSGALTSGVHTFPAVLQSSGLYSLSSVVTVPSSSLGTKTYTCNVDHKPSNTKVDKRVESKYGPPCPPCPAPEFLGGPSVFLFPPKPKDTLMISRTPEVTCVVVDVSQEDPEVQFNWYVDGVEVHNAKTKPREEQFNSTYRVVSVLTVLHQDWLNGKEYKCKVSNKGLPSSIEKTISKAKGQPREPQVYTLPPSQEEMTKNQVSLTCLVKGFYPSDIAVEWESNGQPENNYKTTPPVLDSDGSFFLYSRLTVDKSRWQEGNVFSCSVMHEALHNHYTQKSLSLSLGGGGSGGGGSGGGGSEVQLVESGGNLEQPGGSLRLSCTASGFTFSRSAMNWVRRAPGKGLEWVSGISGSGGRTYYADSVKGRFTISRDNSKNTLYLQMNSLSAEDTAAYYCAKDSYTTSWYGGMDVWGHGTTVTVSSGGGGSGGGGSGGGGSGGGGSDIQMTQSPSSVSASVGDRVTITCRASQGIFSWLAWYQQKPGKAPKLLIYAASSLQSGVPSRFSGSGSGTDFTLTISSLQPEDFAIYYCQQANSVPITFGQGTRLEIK
light: B1 light
notes: as for B3
B5: SM17-anti IL-33 1# bsBp (bispecific antibody, human IgG4 S228P, kappa)
heavy: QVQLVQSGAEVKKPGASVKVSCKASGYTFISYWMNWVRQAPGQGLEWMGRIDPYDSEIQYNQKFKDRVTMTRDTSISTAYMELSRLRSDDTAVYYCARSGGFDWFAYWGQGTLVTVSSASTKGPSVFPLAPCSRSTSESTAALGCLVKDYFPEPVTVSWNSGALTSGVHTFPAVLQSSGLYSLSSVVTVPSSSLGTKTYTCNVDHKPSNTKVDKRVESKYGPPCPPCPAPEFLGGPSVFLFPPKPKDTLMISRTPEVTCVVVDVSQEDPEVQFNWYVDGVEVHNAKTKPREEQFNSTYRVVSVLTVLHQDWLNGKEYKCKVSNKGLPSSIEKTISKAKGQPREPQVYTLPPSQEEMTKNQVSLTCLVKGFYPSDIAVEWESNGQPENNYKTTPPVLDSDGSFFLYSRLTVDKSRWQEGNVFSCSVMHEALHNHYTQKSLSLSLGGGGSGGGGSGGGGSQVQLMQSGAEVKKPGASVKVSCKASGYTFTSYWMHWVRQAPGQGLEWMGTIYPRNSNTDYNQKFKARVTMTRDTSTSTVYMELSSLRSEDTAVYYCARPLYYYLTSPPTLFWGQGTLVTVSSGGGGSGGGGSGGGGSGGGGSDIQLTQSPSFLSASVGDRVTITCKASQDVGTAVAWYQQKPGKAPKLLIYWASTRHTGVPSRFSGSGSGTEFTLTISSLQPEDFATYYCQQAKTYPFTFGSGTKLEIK
light: B1 light
notes: as for B3

Assays:
human TSLP (R&D systems) = target: T2, human TSLP (R&D systems) (human, UniProt Q969D9 29-159); test: BLI (Octet RED96), binder captured via anti-human Fab CH1, TSLP in solution
T2 construct: also called thymic stromal lymphopoietin
Protocol: (§1) Biosensors immobilized with irrelevant antibody (SM03, anti-human CD22 chimeric IgG1 antibody, SinoMab BioScience Limited, 20 μg/mL) were used as control reference.

[1] = target: T1, human IL-33 (R&D systems); test: BLI (Octet RED96), binder captured via anti-human Fab CH1, IL33 in solution
Protocol: as §1

Binder | Kd (human TSLP (R&D systems)) | koff (human TSLP (R&D systems)) | kon (human TSLP (R&D systems)) | Kd [1] | koff [1] | kon [1]
B1 | 0.511 nM | 0.000241 s⁻¹ | 472000 M⁻¹ s⁻¹ |  |  | 
B2 | < 0.001 nM | < 1e-07 s⁻¹ | 374000 M⁻¹ s⁻¹ |  |  | 
B3 |  |  |  | ≤ 0.0425 nM | < 1e-07 s⁻¹ | 22700 M⁻¹ s⁻¹
B4 |  |  |  | < 0.0259 nM | < 1e-07 s⁻¹ | 37300 M⁻¹ s⁻¹
B5 |  |  |  | 28.9 nM | 0.000283 s⁻¹ | 9810 M⁻¹ s⁻¹
